Experimental data reported in FireProtDB.

B1: Superoxide dismutase [Mn], mitochondrial, P04179 (parent)
chain: MLSRAVCGTSRQLAPVLGYLGSRQKHSLPDLPYDYGALEPHINAQIMQLHHSKHHAAYVNNLNVTEEKYQEALAKGDVTAQIALQPALKFNGGGHINHSIFWTNLSPNGGGEPKGELLEAIKRDFGSFDKFKEKLTAASVGVQGSGWGWLGFNKERGHLQIAACPNQDPLQGTTGLIPLLGIDVWEHAYYLQYKNVRPDYLKAIWNVINWENVTERYMACKK
B2: Ornithine carbamoyltransferase subunit I, P04391 (parent)
chain: MSGFYHKHFLKLLDFTPAELNSLLQLAAKLKADKKSGKEEAKLTGKNIALIFEKDSTRTRCSFEVAAYDQGARVTYLGPSGSQIGHKESIKDTARVLGRMYDGIQYRGYGQEIVETLAEYASVPVWNGLTNEFHPTQLLADLLTMQEHLPGKAFNEMTLVYAGDARNNMGNSMLEAAALTGLDLRLVAPQACWPEAALVTECRALAQQNGGNITLTEDVAKGVEGADFIYTDVWVSMGEAKEKWAERIALLREYQVNSKMMQLTGNPEVKFLHCLPAFHDDQTTLGKKMAEEFGLHGGMEVTDEVFESAASIVFDQAENRMHTIKAVMVATLSK
B3: Penicillolysin, P47189 (parent)
chain: MRFTTLSTAFLALAQNVYAFPIESDLSALDVTLSQVSDTRIKAVVKNTGAENVTFVHLNFFRDSAPVKKVSVYRENNEVVFDGIKRRFQLQGLASESLTTLEAGEVLEDEFDIATTTDLSSGGAITLRSNGLVPVVKDGAVTGYLPYSSNDLKLNIDGAKASTVTKALKPLDRRTKETCSNASRKSALEKALSNTVKLANAAATAARSGSASKFSEYFKTTSSSTRSVVAARLEAVAKEAQSASSGSTTYYCSDTLGYCETNVLAYTLPARNIIANCDIYYSYLPALAGTCHQQDQATTTLHEFTHAPGVYSPGTDDLGYGYSAATSLSSSQAVLNADSYALYANAINLGC
B4: Chaperone Ric-8A, Q5E9J8 (parent)
chain: MEPRAVADALETGEEDVVMEALRAYNRENSQSFTFDDAQQEDRKRLAKLLVSVLEQGLPPSRRVIWLQSIRILSRDRSCLDSFTSRRSLQALACYAGISASQGSVPEPLNMDVVLESLKCLCNLVLSSPVAQALAAEAGLVVRLAERVGLCRQSSFPHDVQFFDLRLLFLLTALRTDVRQQLFQELQGVRLLTRALELTLGMTEGERHPELLPPQETERAMEILKVLFNITFDSIKREVDEEDAALYRHLGTLLRHCVMLAAAGDRTEELHGHAVNLLGNLPVKCLDVLLTLEPHEGSLEFLGVNMDVIRVLLSFMEKRLHQTHRLKESVAPVLSVLTECARMHRPARKFLKAQVLPPLRDVRTRPEVGELLRNKLVRLMTHLDTDVKRVAAEFLFVLCSESVPRFIKYTGYGNAAGLLAARGLMAGGRPEGQYSEDEDTDTDEYKEAKASINPVTGRVEEKPPNPMEGMTEEQKEHEAMKLVNMFDKLSRHRVIQPMGMSPRGQLTSLQDAMCETMEGQLSSDPDSDPD
B5: Acylphosphatase-1, P41500 (parent)
chain: MSMAEGDTLISVDYEIFGKVQGVFFRKYTQAEGKKLGLVGWVQNTDQGTVQGQLQGPASKVRHMQEWLETKGSPKSHIDRASFHNEKVIVKLDYTDFQIVK
B6: Growth factor receptor-bound protein 2, Q08012 (parent)
chain: MEAIAKHDFSATADDELSFRKTQILKILNMEDDSNWYRAELDGKEGLIPSNYIEMKNHDWYYGRITRADAEKLLSNKHEGAFLIRISESSPGDFSLSVKCPDGVQHFKVLRDAQSKFFLWVVKFNSLNELVEYHRTASVSRSQDVKLRDMIPEEMLVQALYDFVPQESGELDFRRGDVITVTDRSDENWWNGEIGNRKGIFPATYVTPYHS

Variants of: B1
Conditions: Homo sapiens; pH 7.8; 70 °C; Thermal; DSC; Potassium phosphate 2 mM; reversible: yes; structure 1N0J; whole UniProt chain shown
For I82T, the “ddG of mutation (higher = less stable)” value was 2.7 kcal/mol.

Same assay, conditions: Homo sapiens; pH 7.8; Thermal; DSC; Potassium phosphate 2 mM; reversible: yes; structure 1N0J; whole UniProt chain shown
In the case of I82T, the Tm is reported as 56.4 °C, the “change of melting temperature, mutant - wild type (higher = more stable)” value (from here on “change of melting temperature, mutant”) is reported as -13.6 °C and the “unfolding enthalpy (calorimetric)” value is reported as 64.9 kcal/mol.

Variants of: B2
Conditions: Escherichia coli (strain K12); pH 8.3; Thermal; DSC; borate 40 mM; structure 1AKM; whole UniProt chain shown
In the case of K87Q, the Tm is reported as 69.7 °C and the “unfolding enthalpy (calorimetric)” value is reported as 690 kcal/mol.
In the case of R320A, the Tm is reported as 69.6 °C and the “unfolding enthalpy (calorimetric)” value is reported as 710 kcal/mol.
With A326G the Tm was 63 °C and the “unfolding enthalpy (calorimetric)” value was 660 kcal/mol.

Variants of: B3
Conditions: Penicillium citrinum; pH 5; Thermal; CD; sodium acetate 10 mM; reversible: no; whole UniProt chain shown
In the case of T255P, the Tm is reported as 71 °C and the “change of melting temperature, mutant” value is reported as 3 °C.
In the case of A341E, the Tm is reported as 70 °C and the “change of melting temperature, mutant” value is reported as 2 °C.
With R207E E234R the Tm was 70 °C and the “change of melting temperature, mutant” value was 2 °C.

Variants of: B4
Conditions: Bos taurus; pH 7.5; Thermal; DSF; Tris-HCl; KCl; structure 6N85; whole UniProt chain shown
In the case of F169R, the Tm is reported as 45.6 °C and the “change of melting temperature, mutant” value is reported as -1.2 °C.
For N123E, the Tm was 46.7 °C and the “change of melting temperature, mutant” value was -0.1 °C.
In the case of R75M, the Tm is reported as 45.9 °C and the “change of melting temperature, mutant” value is reported as -0.9 °C.
In the case of A173W, the Tm is reported as 45.6 °C and the “change of melting temperature, mutant” value is reported as -1.2 °C.

Variants of: B5
Conditions: Bos taurus; pH 5.5; 25 °C; Thermal; CD; sodium acetate 5 mM; reversible: Yes; structure 2ACY; whole UniProt chain shown
For K27E E66K N85K Q98K, the “ddG of mutation (higher = less stable)” value was -1.67 kcal/mol.

Same assay, conditions: Bos taurus; pH 5.5; Thermal; CD; sodium acetate 5 mM; reversible: Yes; structure 2ACY; whole UniProt chain shown
With K27E E66K N85K Q98K the “change of melting temperature, mutant” value was 5.4 °C.

Same assay, conditions: Bos taurus; pH 7; 25 °C; Thermal; DSC; sodium phosphate 50 mM; reversible: Yes; structure 2ACY; whole UniProt chain shown
With K27E E66K N85K Q98K the “ddG of mutation (higher = less stable)” value was -1.67 kcal/mol.

Same assay, conditions: Bos taurus; pH 7; Thermal; DSC; sodium phosphate 50 mM; reversible: Yes; structure 2ACY; whole UniProt chain shown
For K27E E66K N85K Q98K, the “change of melting temperature, mutant” value was 5.4 °C.

Variants of: B6
Conditions: Drosophila melanogaster; pH 6; 20 °C; GdnHCl; Fluorescence; phosphate 50 mM; structure 2A36; whole UniProt chain shown
For T22G, the “ddG of mutation (higher = less stable)” value was -3.6 kcal/mol, the denaturant m value was 2.2 kcal/mol/M and the unfolding free energy was 4 kcal/mol.
